Laboratory results from US20090175860A1 (Novartis, published 2009).

B1: 04536 in IgG format (antibody, V domains shown)
VH: QVQLVQSGAEVKKPGASVKVSCKASGYTFTGYYMNWVRQAPGQGLEWMGIINPWTGNTNYAQKFQGRVTMTRDTSISTAYMELSSLRSEDTAVYYCARDPGFFYYTPSDLWGQGTLVTVSS
VL: DIELTQPPSVSVAPGQTARISCSGDSIGNKYVHWYQQKPGQAPVLVIYADSDRPSGIPERFSGSNSGNTATLTISGTQAEDEADYYCQAYDSSMLRVFGGGTKLTVLG
B2: 04537 in IgG format (antibody, V domains shown)
VH: QVQLVQSGAEVKKPGESLKISCKGSGYSFSNYWIGWVRQMPGKGLEWMGFIFPDTSYTRYSPSFQGQVTISADKSISTAYLQWSSLKASDTAMYYCARVKLITDYWGQGTLVTVSS
VL: DIELTQPPSVSVAPGQTARISCSGDSLRSYFVSWYQQKPGQAPVLVIYDDDDRPSGIPERFSGSNSGNTATLTISGTQAEDEADYYCASWDTLSDVEVFGGGTKLTVLG
B3: 04541 in IgG format (antibody, V domains shown)
VH: QVQLQESGPGLVKPGETLSLTCTVSGGSISSSSYYWNWIRQAPGKGLEWIGEIYFGWTYYNPSLKGRVTISVDTSKNQFSLKLSSVTAEDTAVYYCARGYEFHGYTTFDYWGQGTLVTVSS
VL: DIELTQPPSVSVAPGQTARISCSGDNIGSYYVYWYQQKPGQAPVLVIYDDNDRPSGIPERFSGSNSGNTATLTISGTQAEDEADYYCQSYDFPSIVFGGGTKLTVLG
B4: 04687 in IgG format (antibody, V domains shown)
VH: QVQLVQSGAEVKKPGSSVKVSCKASGGTFSSYAISWVRQAPGQGLEWMGGIDPFGTANYAQKFQGRVTITADESTSTAYMELSSLRSEDTAVYYCARVYQDVWGQGTLVTVSS
VL: DIVMTQSPDSLAVSLGERATINCRSSQSILYGINNNFLGWYQQKPGQPPKLLIYWASTRESGVPDRFSGSGSGTDFTLTISSLQAEDVAVYYCQQYYNHPHTFGQGTKVEIKR
B5: 05091 in IgG format (antibody, V domains shown)
VH: B1 VH
VL: DIELTQPPSVSVAPGQTARISCSGDSIGNKYVHWYQQKPGQAPVLVIYADSDRPSGIPERFSGSNSGNTATLTISGTQAEDEADYYCQSYAHYHDIWVFGGGTKLTVLG
B6: 05097 in IgG format (antibody, V domains shown)
VH: B4 VH
VL: DIVMTQSPDSLAVSLGERATINCRSSQSILYGINNNFLGWYQQKPGQPPKLLIYWASTRESGVPDRFSGSGSGTDFTLTISSLQAEDVAVYYCQQYAFGWTFGQGTKVEIKR
B7: 04690 (parental anti-cMet Fab antibody) (Fab, V domains shown)
VH: QVQLQQSGPGLVKPSQTLSLTCAISGDSVSSNSAAWGWIRQSPGRGLEWLGRIYYRSKWVNDYAVSVKSRITINPDTSKNQFSLQLNSVTPEDTAVYYCARQGAVYPGPYGFDVWGQGTLVTVSS
VL: DIELTQPPSVSVAPGQTARISCSGDKLGSYFVYWYQQKPGQAPVLVIYDDDNRPSGIPERFSGSNSGNTATLTISGTQAEDEADYYCQSFGISNFYVFGGGTKLTVLG
notes: carries two C-terminal tags (FLAG and 6xHis)

Legend:
[1] = biological target: rhesus c-Met on 4MBr-5 cells (rhesus); experiment: cell-based or functional assay
[2] = biological target: T1, full length human c-Met on cells (human, UniProt P08581 25-1390); experiment: cell-based or functional assay
T1 sequence (P08581 25-1390): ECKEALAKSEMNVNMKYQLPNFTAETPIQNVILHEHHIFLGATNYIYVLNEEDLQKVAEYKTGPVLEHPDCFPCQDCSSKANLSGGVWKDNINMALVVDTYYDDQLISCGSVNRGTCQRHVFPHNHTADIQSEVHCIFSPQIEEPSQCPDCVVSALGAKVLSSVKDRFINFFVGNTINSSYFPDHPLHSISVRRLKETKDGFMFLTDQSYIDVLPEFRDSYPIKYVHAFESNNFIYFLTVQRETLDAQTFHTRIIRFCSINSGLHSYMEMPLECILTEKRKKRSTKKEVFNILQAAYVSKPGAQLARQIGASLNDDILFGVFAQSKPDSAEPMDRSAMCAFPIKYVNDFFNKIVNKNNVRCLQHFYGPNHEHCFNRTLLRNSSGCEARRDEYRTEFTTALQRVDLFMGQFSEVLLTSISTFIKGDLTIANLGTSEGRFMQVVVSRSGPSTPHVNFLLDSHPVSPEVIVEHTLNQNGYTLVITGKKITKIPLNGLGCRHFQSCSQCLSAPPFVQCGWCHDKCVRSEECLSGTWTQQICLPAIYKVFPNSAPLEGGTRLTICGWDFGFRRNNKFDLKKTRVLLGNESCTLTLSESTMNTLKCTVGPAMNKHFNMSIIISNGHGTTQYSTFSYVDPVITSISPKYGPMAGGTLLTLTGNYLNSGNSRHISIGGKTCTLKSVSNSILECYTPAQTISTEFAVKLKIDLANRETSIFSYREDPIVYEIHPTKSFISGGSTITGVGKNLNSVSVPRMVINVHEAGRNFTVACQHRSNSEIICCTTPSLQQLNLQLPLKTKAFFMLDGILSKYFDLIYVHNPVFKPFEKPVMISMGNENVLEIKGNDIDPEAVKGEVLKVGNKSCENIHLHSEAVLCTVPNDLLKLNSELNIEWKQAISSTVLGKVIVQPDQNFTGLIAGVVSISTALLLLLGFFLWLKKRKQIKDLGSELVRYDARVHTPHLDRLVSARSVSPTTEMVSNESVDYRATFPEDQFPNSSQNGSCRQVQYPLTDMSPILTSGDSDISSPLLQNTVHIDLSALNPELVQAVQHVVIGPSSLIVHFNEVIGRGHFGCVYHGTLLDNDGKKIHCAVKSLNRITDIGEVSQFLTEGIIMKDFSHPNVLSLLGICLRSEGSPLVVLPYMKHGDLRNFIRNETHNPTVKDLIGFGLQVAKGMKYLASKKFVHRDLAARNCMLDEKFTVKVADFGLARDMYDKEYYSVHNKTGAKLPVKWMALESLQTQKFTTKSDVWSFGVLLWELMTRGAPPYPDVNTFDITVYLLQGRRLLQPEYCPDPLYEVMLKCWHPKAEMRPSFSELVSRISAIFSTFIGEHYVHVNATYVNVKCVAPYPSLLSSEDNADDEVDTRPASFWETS

[3] = biological target: rhesus c-Met on 4MBr-5 cells (rhesus); experiment: cell-based or functional assay; remark: listed apart in the source
[4] = biological target: T1, full length human c-Met on cells; experiment: cell-based or functional assay; remark: listed apart in the source
[5] = biological target: T1, full length human c-Met on cells; experiment: cell-based or functional assay; remark: listed apart in the source
[6] = biological target: T1, full length human c-Met on cells; experiment: cell-based or functional assay; remark: listed apart in the source
[7] = biological target: rhesus c-Met on 4MBr-5 cells (rhesus); experiment: cell-based or functional assay; remark: listed apart in the source
recombinant human c-Met = biological target: T2, recombinant human c-Met (human, UniProt P08581 25-932, limits assumed); experiment: SPR (BIAcore), c-Met amine-coupled on CM5 chip, Fab 16-500 nM as analyte
T2 construct: Soluble recombinant protein: immobilised on the CM5 chip in Biacore, in solution in the equilibrium titration; The precursor is cleaved into disulfide-linked alpha and beta subunits; also called Hepatocyte Growth Factor Receptor
T2 sequence (P08581 25-932 limits assumed): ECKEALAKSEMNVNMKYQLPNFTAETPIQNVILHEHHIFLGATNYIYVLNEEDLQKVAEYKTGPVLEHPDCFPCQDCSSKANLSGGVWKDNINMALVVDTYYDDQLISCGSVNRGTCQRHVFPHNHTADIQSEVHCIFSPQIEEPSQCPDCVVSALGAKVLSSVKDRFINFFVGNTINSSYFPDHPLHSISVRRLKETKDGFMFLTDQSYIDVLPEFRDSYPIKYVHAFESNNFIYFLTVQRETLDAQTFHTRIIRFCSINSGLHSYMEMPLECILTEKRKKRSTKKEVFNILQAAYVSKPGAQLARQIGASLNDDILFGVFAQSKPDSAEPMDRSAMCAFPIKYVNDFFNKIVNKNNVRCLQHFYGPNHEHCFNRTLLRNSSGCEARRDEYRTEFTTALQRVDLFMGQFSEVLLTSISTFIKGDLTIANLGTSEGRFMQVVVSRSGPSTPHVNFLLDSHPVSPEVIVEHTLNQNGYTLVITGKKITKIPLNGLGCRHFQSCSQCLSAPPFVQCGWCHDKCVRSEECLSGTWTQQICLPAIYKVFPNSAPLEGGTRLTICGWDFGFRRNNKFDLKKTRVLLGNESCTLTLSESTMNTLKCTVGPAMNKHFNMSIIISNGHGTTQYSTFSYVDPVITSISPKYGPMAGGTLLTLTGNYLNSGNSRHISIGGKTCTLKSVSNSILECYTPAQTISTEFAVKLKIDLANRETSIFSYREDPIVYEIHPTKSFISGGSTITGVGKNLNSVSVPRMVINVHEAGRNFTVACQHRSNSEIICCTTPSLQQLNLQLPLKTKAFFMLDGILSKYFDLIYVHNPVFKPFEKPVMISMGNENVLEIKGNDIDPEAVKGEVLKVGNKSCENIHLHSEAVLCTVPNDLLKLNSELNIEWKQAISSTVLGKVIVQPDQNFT
Procedure: Using these clones, kinetic SPR analysis is performed on a CM5 chip (Biacore, Sweden) which had been coated with a density of ˜400 RU of either recombinant human c-Met, in 10 mM Na-acetate pH 4.5 using standard EDC-NHS amine coupling chemistry. […] PBS (136 mM NaCl, 2.7 mM KCl, 10 mM Na2HPO4 , 1.76 mM KH2PO4 pH 7.4) is used as the running buffer. The Fab preparations are applied in concentration series of 16-500 nM at a flow rate of 20 μl/min. Association phase is set to 60 s and dissociation phase to 120 s.

[8] = biological target: T3, rhesus c-Met on 4MBr-5 cells (rhesus); experiment: flow cytometry, Fab titration on rhesus 4MBr-5 cells
T3 construct: whole, on cells
Procedure: (§1) In order to further characterize the anti-c-Met antibodies, the affinity to full length human and cynomolgus c-Met is determined. GTL16, CHO cells overexpressing cynomolgus c-Met or rhesus 4 MBr-5 cells are washed, trypsinised, and suspended in PBS containing 3% FCS (3% FCS/PBS) at 4-C. 2-5×10⁵ cells/sample are resuspended in 140 μl of 3% FCS//PBS containing 5 μg/ml of purified anti-cMet Fabs or serial dilutions thereof. As a positive control 5 μg/ml of DO24 (mouse IgG2a), anti-human c-Met is used. The cells are incubated for 30-60 minutes at 4° C. before being pelleted by centrifugation for 2 min at 2000 rpm (716 g) at 4° C. and washed in 200 μl of in chilled 3% FCS/PBS. The cells are again pelleted by centrifugation and the PBS gently removed. Cells are resuspended in 100 μl of goat anti-human IgG (H+L) PE conjugated (Jackson Cat No. 109-116-088) diluted 1:200 in 3% FCS/0.02% NaN₃/PBS; For the positive control goat anti-mouse IgG (H+L)-PE conjugated (Jackson Cat No. 115-116-146) diluted 1:200 in 3% FCS/PBS is used. Samples are incubated in the dark for 30-60 min at 4° C. Following centrifugation and washing in 200 μl of 3% FCS/0.02%/NaN₃/PBS the cells are resuspended in 100 μl of 3% FCS/PBS and assayed using FACS-array or FACS-Calibur.

[9] = biological target: T1, full length human c-Met on cells; experiment: flow cytometry, Fab titration on GTL-16 cells
Procedure: as §1

| Binder | EC50 [nM] 4Mbr-5 Proliferation IgG [1] [nM] | EC50 [nM] NCI-H441 Migration IgG [2] [nM] | EC50 [nM] Inhibition of HGF driven proliferation 4MBr-5 [3] [nM] | EC50 [nM] Inhibition of HGF driven migration NCI-H441 [4] [nM] | EC50 [nM] Inhibition of HGF driven migration NCI-H441 in 1% serum [5] [nM] | EC50 [nM] Inhibition of HGF stimulated c-Met autophosphorylation in A549 [6] [nM] | EC50 [nM] Inhibition of HGF driven proliferation 4MBr-5 in 10% serum [7] [nM] | Kd (recombinant human c-Met) [nM] | Kd [8] [nM] | Kd [9] [nM] |
| --- | --- | --- | --- | --- | --- | --- | --- | --- | --- | --- |
| B1 | 4 | 0.61 | 4 | 0.61 | – | – | – | – | – | – |
| B2 | 150 | 0.14 | 150 | 0.14 | – | – | – | – | – | – |
| B3 | 200 | 0.27 | 200 | 0.27 | – | – | – | – | – | – |
| B4 | 6 | 1.68 | 6 | 1.68 | – | – | – | – | – | – |
| B5 | – | – | – | – | 0.61 | 0.193 | 1.3 | – | – | – |
| B6 | – | – | – | – | 0.76 | 0.166 | 1.6 | – | – | – |
| B7 | – | – | – | – | – | – | – | 66 | 0.1 | 1.1 |
